Results published in patent publication US20260234242A1 (HAINAN SIMCERE ZAIMING PHARMACEUTICAL, published 2026).

Columns and labels:
[1] = target: T1, human CDH6 on tumor cells (OVCAR3 cells, PA-1 cells) (human, UniProt P55285 54-790); experiment: FACS, PA-1 cells
T1 sequence: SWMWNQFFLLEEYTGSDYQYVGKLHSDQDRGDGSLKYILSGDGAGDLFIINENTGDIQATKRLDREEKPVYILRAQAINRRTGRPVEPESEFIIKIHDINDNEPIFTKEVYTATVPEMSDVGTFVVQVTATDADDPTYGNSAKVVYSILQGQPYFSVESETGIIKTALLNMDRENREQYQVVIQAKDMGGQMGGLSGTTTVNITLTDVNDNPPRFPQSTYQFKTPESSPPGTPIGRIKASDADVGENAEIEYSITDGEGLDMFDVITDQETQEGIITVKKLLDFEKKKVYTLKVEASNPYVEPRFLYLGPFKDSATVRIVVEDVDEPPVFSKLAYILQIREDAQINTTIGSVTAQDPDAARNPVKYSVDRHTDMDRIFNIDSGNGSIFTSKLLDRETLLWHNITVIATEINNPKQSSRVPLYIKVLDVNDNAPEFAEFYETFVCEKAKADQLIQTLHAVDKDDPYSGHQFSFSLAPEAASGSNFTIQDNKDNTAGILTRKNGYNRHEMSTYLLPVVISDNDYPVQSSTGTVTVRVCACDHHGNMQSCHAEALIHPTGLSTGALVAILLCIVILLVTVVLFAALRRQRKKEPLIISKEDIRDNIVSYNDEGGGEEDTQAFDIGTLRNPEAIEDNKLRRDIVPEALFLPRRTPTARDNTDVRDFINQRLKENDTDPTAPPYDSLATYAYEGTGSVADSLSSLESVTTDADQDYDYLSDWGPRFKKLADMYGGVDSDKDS
Protocol: (§1) OVCAR3 cells with high expression of CDH6 and PA-1 cells with moderate expression of CDH6 were used to detect the binding activity of the antibodies to the cells. […] The cells were washed once with PBS, counted, resuspended to 2×10⁶ cells/mL in an FACS buffer (PBS+2% FBS), and then added to a 96-well plate at 50 μL/well. The chimeric antibodies were diluted with FACS buffer (PBS+2% FBS) and added to the 96-well plate at 50 μL/well, and the plate was incubated at 4° C. for 1 h. […] The dilution was added to the 96-well plate at 50 μL/well, and the plate was incubated at 4° C. for 1 h. After the plates were centrifuged and washed 2 times with PBS, the cells were resuspended in an FACS buffer. The mean fluorescence intensity (MFI) was measured using FACS Canton II (BD). Analysis was performed by the GraphPad Prism software, data were fitted, and EC50 values were calculated. The chimeric antibodies tested had strong binding to both OVCAR3 cells and PA-1 cells.

[2] = target: T1, human CDH6 on tumor cells (OVCAR3 …); experiment: FACS, OVCAR3 cells
Protocol: as §1

[3] = target: T2, his-tagged human CDH6 extracellular region protein (hCDH6 ECD-his) (human, UniProt P55285 19-615); experiment: ELISA, coated antigen; ELISA, hCDH6 ECD-his coated at 1 µg/mL, antibody in solution
T2 construct: also called Human CDH6-his; hCDH6-his; not shown: his tag
T2 sequence: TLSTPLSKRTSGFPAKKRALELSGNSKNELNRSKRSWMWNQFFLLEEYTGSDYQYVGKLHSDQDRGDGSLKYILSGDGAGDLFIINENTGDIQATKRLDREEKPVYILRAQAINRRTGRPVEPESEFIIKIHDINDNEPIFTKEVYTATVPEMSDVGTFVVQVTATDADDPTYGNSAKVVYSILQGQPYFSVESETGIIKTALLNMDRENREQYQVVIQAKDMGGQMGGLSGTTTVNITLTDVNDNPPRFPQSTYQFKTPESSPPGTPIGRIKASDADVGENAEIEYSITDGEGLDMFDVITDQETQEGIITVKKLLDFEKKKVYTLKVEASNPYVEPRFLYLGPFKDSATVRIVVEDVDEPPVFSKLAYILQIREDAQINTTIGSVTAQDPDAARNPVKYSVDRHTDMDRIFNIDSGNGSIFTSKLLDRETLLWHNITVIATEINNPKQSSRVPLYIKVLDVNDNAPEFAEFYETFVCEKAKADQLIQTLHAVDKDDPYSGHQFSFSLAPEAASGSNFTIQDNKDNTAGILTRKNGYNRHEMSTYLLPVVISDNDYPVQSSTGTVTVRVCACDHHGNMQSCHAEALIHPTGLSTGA
Protocol: Human CDH6 protein (hCDH6 ECD-his, conventionally synthesized), monkey CDH6 protein (cynoCDH6 ECD-his, conventionally synthesized; the cynoCDH6 ECD sequence was derived from Uniprot #A0A2K5TW62 (19-615)), and murine CDH6 protein (mCDH6 ECD-his, conventionally synthesized; the mCDH6 ECD sequence was derived from Uniprot #P97326 (19-615)) were diluted with PBS to a final concentration of 1 μg/mL, and added to a 96-well ELISA plate at 100 μL/well. The plate was incubated at 4° C. overnight. The next day, the plate was washed 3 times with a plate washing solution (PBS+0.01% (v/v) Tween 20), and a blocking buffer (PBS+0.01% (v/v) Tween 20+2% (w/w) BSA) was added for blocking at room temperature for 2 h. The blocking buffer was discarded, and the plate was washed 3 times. The chimeric antibodies were diluted with 1% BSA+PBS (purchased from Cytiva, Cat. No. SH30264.01) and added to the 96-well plate at 50 μL/well. After incubation at 37° C. for 2 h, the plate was washed 3 times with a plate washing solution. […] The plate was incubated at 37° C. for 1 h and then washed 5 times with a plate washing solution. A TMB substrate (purchased from Seracare, Cat. No. 5120-0077) was added at 50 μL/well and incubated at room temperature for 10 min, then a stop solution (1.0 N HCl) was added at 50 μL/well. OD450 nm values were read using a microplate reader (Biotek). Analysis was performed by the GraphPad Prism software, data were fitted, and EC50 values were calculated. The chimeric antibodies tested all had strong binding to the human CDH6 protein, the monkey CDH6 protein, and the murine CDH6 protein.

B1: CHI-CDH6-1 (antibody, human IgG1, kappa, V domains shown)
VH: QVQLQQPGAELVRPGSSVKLSCKASGYTFTNYWMHWVKQRPIEGLEWIGDIDPSHSETHYTQKFKDKATLTVDKSSSTAYMQLSSLTSEDSAVYYCARGDLGRFDYWGQGTTLTVSS
VL: DIVLTQSPASLAVSLGQRATISCRASESVSIHGTHLMHWYQQKSGQPPKLLIYAASNLESGVPARFSGSGSETDFTFNIHPVEEEDAATYFCQQSFEDPWTFGGGTKLEIKR
notes: also called CHI-hCDH6-1; CH1-CDH6-1
EC50 [1]: 0.1 nM | Max MFI [1]: 4390 MFI | EC50 [2]: 0.13 nM | Max MFI [2]: 14700 MFI

B2: CHI-CDH6-2 (antibody, human IgG1, kappa, V domains shown)
VH: EVQLQQSGPELVKPGASVRISCKASGYTFTDYYMNWVKQSHGKSLEWIGDIDPNNANTTYNQKFKGKATLTVDKSSSTAYMELRSLTSEDSAVYSCASFGYDVEWFGYWGQGTLVTVSA
VL: QIVLTQSPALMSASPGEKVTMTCSASSSVSYMYWYQQKPRSSPKPWIYLTSNLASGVPARFSGSGSGTSYSLTISSMEAEDAATYYCQQWSSNPFTFGSGTKLEIKR
notes: also called chimeric antibody of murine CDH6-2
EC50 [1]: 0.2 nM | Max MFI [1]: 4760 MFI | EC50 [2]: 0.36 nM | Max MFI [2]: 15600 MFI

B3: CHI-CDH6-3 (antibody, human IgG1, kappa, V domains shown)
VH: QVQLQQPGAELVKPGASVKLSCKASGYTFTSYWIHWVKQRPGQGLEWIGEINPSNGVTNCNENFKSKATLTVDKSSSTAYMQLSSLTSEDSAVYYCTIPNLLWWYFDVWGAGTTVTVSS
VL: DIQMTQSPASLSVSVGETVTITCRASENIYSNLAWYQQKQGKSPQLLVYEATNLADGVPSRFSGSGSGTQYSLKINSLQSEDFGSYYCQHFWGTLWTFGGGTKLEIKR
notes: also called CH1-CDH6-3; chimeric antibody of murine CDH6-3
EC50 [1]: 0.13 nM | Max MFI [1]: 3870 MFI | EC50 [2]: 1.16 nM | Max MFI [2]: 15500 MFI | EC50 [3]: 0.03 nM

B4: CHI-CDH6-6 (antibody, human IgG1, kappa, V domains shown)
VH: EVQLQQSGPELVKPGDSVKMSCKASGYTFTDYYMAWVRQSHRKSLEWIGYIFPNSGGTDYSQKFKGKATLTVDKSSSTVYMELHSLTSEDSAVYYCARELGADYGDYYAMDHWGQGTSVSVSS
VL: DIQMTQSPASLSASVGETVTITCRASENIDSYLAWYQQKQGKSPQLLVYSATLLADGVPSRFSGSGSGTQYSLKINSLKSEDVARYYCQHYYRTPPTFGSGTKLEIKR
notes: also called CHI-hCDH6-6; chimeric antibody of murine CDH6-6
EC50 [1]: 0.43 nM | Max MFI [1]: 4630 MFI | EC50 [2]: 0.67 nM | Max MFI [2]: 14800 MFI

B5: CHI-CDH6-8 (antibody, human IgG1, kappa, V domains shown)
VH: EVQLQQSGPELVKPGDSVKMSCKASGYTFTDYYMAWIKQNHGKSLEWIGYIYPNNGGTDYNQKFRGKATLTVDKSSSAAYMELHSLTSEDSAVYYCAREIGTLYGDYYAMDYWGQGTSVTVSS
VL: DIQMTQSPASLSASVGETVTITCRASENIDSYLAWYQQKQGKSPQLLVYTATLLADGVPSRFSGSGSGTQYSLKINSLQSEDVARYYCQHYYSTPPTFGSGTKLEIKR
notes: also called chimeric antibody of murine CDH6-8
EC50 [1]: 0.23 nM | Max MFI [1]: 4710 MFI | EC50 [2]: 0.46 nM | Max MFI [2]: 16100 MFI

B6: CHI-CDH6-9 (antibody, human IgG1, kappa, V domains shown)
VH: QVQLQQPGAELVKPGASVKLSCKASGYTFTGYWMHWVRQRPGQGLEWIGEINPNNGGTNCNEQFKNKATLTVDKSSSTAYMQLSSLTSEDSAVFYCTISFGNYLFFDVWGAGTTVTVSS
VL: DIQMTQSPASLAASVGETITITCQASENIYFSLAWYQQKQGKSPQLLIYNANTLEDGVPSRFVGSGSGTQYSMKINSIQPEDTATYFCDQTYDFPWTFGGGTKLEIKR
notes: also called chimeric antibody of murine CDH6-9
EC50 [1]: 0.16 nM | Max MFI [1]: 4400 MFI | EC50 [2]: 0.51 nM | Max MFI [2]: 18200 MFI

B7: CHI-CDH6-10 (antibody, human IgG1, kappa, V domains shown)
VH: QVQLQQPGAELVKPGTSVKMSCKASGYTFTSDWIAWVKQRPGQGLEWIGDIYPGSGRTHNNEKFNFKATLTVDTSSNTAYMQLSSLTSEDSAVYFCARPMLGRFDYWGQGTTLTVSS
VL: DIVLTQSPASLAVSLGQRATISCRASESVSIHGTHLMHWYQQKPGQPPKLLIYAASNLESGVPARFSGSGSETDFTLNIHPVEEEDAATYFCQQSFEDPFTFGSGTKLEIKR
notes: also called chimeric antibody of murine CDH6-10
EC50 [1]: 0.08 nM | Max MFI [1]: 4070 MFI | EC50 [2]: 0.2 nM | Max MFI [2]: 13900 MFI

B8: CHI-CDH6-11 (antibody, human IgG1, kappa, V domains shown)
VH: QIQLQQSGPELVKPGASVRISCKASGYTFTDYYITWVKLRPGQGLEWIGWIYPGSVNIKYNEKFKGKATLTVDTSSSTAYMQLNSLTSEDSAVYFCARGGYSWFPYWGQGTLVTVSA
VL: NIVMTQSPKSMSMSVGERVTLSCKASENVHTYVSWYQQKPEQSPKLLFYGASTRNTGVPDRFTGSGSATDFTLTISSVQAEDLADYYCGQSYSYPYTFGSGTKLEIKR
notes: also called chimeric antibody of murine CDH6-11
EC50 [1]: 1.78 nM | Max MFI [1]: 4690 MFI | EC50 [2]: 2.14 nM | Max MFI [2]: 14500 MFI

B9: CHI-CDH6-13 (antibody, human IgG1, kappa, V domains shown)
VH: DVQLQESGPGLVKPSQSLSLTCSVTGYSITKDSYWNWIRQFPGSKLEWMGFISYDGSRHYNPSLKNRISITRDTSKNQFFLQLNSVTTEDTATYYCARRDYADYWGQGTTLTVSS
VL: QIVLTQSPALMSAFPGEKVTMTCSATSSVSYIYWYQQKPRSSPKPWIYLTSNLASGVPARFSGSGSGTSYSLTINSLEAEDAATYYCQQWSSIPYTFGGGTKLEIKR
notes: also called chimeric antibody of murine CDH6-13
EC50 [1]: 1.97 nM | Max MFI [1]: 4440 MFI | EC50 [2]: 2.08 nM | Max MFI [2]: 17600 MFI

B10: CHI-CDH6-14 (antibody, human IgG1, kappa, V domains shown)
VH: QIQLQQSGPELVKPGTSVKISCKASGYTFTDNYINWVRQRPGQGLEWIGWIYPGTGNSYYNEKFKGKATLTVDTSSSTAYMQFSSLTSEDSAVYLCASSYGDSFDYWGQGTTLTVSS
VL: DIQMTQTTSSLSASLGNRVTISCRASQDIRNYLNWYQQKPDGTFKLLISYTSRLHSGVPSRFSGSGSGTDYSLTVSNLEPEDIATYYCQQYSQLPWTFGGGSRLEIKR
notes: also called CHI-hCDH6-14; CH1-CDH6-14
EC50 [1]: 0.26 nM | Max MFI [1]: 5410 MFI | EC50 [2]: 0.43 nM | Max MFI [2]: 15700 MFI

B11: NOV0712 (antibody, human IgG1, kappa, V domains shown)
VH: QVQLLESGGGLVQPGGSLRLSCAASGFTFSSHGMHWVRQAPGKGLEWVSVISGSGSNTGYADSVKGRFTISRDNSKNTLYLQMNSLRAEDTAVYYCARQWGSYAFDSWGQGTLVTVSS
VL: DIQMTQSPSSLSASVGDRVTITCRASQSISSYLNWYQQKPGKAPKLLIYAVSTLQSGVPSRFSGSGSGTDFTLTISSLQPEDFATYYCQQSGTFPPTTFGQGTKVEIKR
notes: Positive control, variable regions from WO2018212136A1; also called positive control anti-human CDH6 antibody
EC50 [1]: 1.46 nM | Max MFI [1]: 3600 MFI | EC50 [2]: 1.92 nM | Max MFI [2]: 11500 MFI
